Reference: patent US20180127493A1

Columns and labels:
[1] = biological target: VEGF (as used in the VEGFR competition ELISA); experiment: competition ELISA, VEGF binding to hVEGFR1; ratio to reference Luc
[2] = biological target: recombinant human VEGF165 (PeproTech EC Ltd.) (human) (UniProt P15692); experiment: SPR, BIAcore T100, hVEGF165 amine-coupled on CM4 chip, scFv as analyte
[3] = biological target: Human TNFα N-his trimers (human) (UniProt P01375); experiment: SPR, BIAcore T100, His-tagged human TNFα trimers captured on NTA chip, scFv as analyte
Human TNFα N-his trimers (human), sequence (P01375 77-233 limits assumed): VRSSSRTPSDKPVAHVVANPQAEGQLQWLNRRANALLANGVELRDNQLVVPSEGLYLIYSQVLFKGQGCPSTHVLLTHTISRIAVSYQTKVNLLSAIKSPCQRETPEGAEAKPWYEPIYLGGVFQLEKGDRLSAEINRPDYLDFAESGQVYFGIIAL

recombinant human VEGF165 (PeproTech EC Ltd.) (human), sequence (P15692 other isoform, or with tags, fused parts or gaps limits assumed): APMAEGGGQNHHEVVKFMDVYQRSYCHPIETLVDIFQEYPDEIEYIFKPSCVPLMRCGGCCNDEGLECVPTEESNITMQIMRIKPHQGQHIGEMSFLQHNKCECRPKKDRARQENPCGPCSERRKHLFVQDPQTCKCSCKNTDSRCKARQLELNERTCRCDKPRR
VEGF (as used in the VEGFR competition ELISA), sequence (P15692 whole entry): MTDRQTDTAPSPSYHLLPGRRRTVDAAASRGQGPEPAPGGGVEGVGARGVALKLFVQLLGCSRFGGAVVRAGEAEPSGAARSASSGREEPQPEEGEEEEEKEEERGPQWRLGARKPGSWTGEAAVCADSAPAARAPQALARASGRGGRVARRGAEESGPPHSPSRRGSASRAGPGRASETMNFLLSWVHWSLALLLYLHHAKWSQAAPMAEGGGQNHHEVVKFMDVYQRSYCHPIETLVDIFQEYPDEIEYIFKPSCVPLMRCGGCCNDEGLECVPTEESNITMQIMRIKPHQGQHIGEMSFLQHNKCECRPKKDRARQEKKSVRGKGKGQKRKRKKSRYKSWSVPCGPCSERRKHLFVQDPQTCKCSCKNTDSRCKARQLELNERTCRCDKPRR

Binder | Rel. activity hVEGR1 comp. ELISA (EC50Luc [nM]/EC50test [nM]) [1] | Kd [2] [nM] | koff [2] [s⁻¹] | kon [2] [M⁻¹ s⁻¹] | Kd [3] [nM]
511-max (scFv, from a related filing, part only) scFv: EIVMTQSPSTLSASVGDRVIITCQASQSINIWLSWYQQKPGKAPKLLIYRASTLASGVPSRFSGSGSGTEFTLTISSLQPDDFATYYCQANYAYSAGYGAAFGQGTKLTVLGGGGGSGGGGSGGGGSGGGGSEVQLVESGGGLVQPGGSLRLSCTVSGFSLNTYYMNWVRQAPGKGLEWVGIIAPDDTTYYASWAKSRSTISRDTSKNTVYLQMNSLRAEDTAVYYCARSGDTTAWGADIWGQGTLVTVSS | 8 | 0.0667 | 4.4e-05 | 659000 | 
578-max (scFv, from a related filing, part only) scFv: EIVMTQSPSTLSASVGDRVIITCQASEIIHSWLAWYQQKPGKAPKLLIYLASTLASGVPSRFSGSGSGTQFTLTISSLQPDDFATYYCQNVYLASTNGANFGQGTKLTVLGGGGGSGGGGSGGGGSGGGGSEVQLVESGGGLVQPGGSLRLSCTASGFSLTDYYYMTWVRQAPGKGLEWVGFIDPDDDPYYATWAKGRFTISRDTSKNTVYLQMNSLRAEDTAVYYCAGGDHNSGWGLDIWGQGTLVTVSS |  | 0.439 | 0.000307 | 700000 | 
EP43_min (scFv) scFv: EIVMTQSPSTLSASVGDRVIITCQASQSISDWLAWYQQKPGKAPKLLIYGASRLASGVPSRFSGSGSGAEFTLTISSLQPDDFATYYCQQGWSDSYVDNLFGQGTKLTVLGGGGGSGGGGSGGGGSGGGGSEVQLVESGGGLVQPGGSLRLSCAASGFSLSSGAMSWVRQAPGKGLEWVSVIISSGATYYASWAKGRFTISRDNSKNTLYLQMNSLRAEDTAVYYCAKGGPDDSNSMGTFDPWGQGTLVTVSS |  |  |  |  | 5540
